From patent publication US20200338203A1 (Bicycle, published 2020) come the findings set out here.

Numbered stars: 1 amine (or outer) side, 2 acyl side, 3 side chain; on linkers, the order of the positions; unused ones are H or OH. Bridge positions count the residues as written; N and C are the ends. Square brackets hold non-standard residues; d marks the D form. Ends that are not written are not given here. Dip = N[C@H](C(=O)O)C(c1ccccc1)c1ccccc1; 1Nal = N[C@@H](Cc1cccc2ccccc12)C(=O)O; TBMB = c1c(C[*:1])cc(C[*:3])cc1C[*:2]; Ala(cPr) = N[C@@H](CC1CC1)C(=O)O; hArg = N=C(N)NCCCC[C@H](N)C(=O)O; Gly(cPr) = N[C@H](C(=O)O)C1CC1; Cba = N[C@@H](CC1CCC1)C(=O)O; Tle = CC(C)(C)[C@H](N)C(=O)O; Aib = CC(C)(N)C(=O)O; Sar = CNCC(=O)O

The Ki is a measure of affinity in units of concentration, obtained from inhibition or displacement.

T1 sequence (P29317 24-537): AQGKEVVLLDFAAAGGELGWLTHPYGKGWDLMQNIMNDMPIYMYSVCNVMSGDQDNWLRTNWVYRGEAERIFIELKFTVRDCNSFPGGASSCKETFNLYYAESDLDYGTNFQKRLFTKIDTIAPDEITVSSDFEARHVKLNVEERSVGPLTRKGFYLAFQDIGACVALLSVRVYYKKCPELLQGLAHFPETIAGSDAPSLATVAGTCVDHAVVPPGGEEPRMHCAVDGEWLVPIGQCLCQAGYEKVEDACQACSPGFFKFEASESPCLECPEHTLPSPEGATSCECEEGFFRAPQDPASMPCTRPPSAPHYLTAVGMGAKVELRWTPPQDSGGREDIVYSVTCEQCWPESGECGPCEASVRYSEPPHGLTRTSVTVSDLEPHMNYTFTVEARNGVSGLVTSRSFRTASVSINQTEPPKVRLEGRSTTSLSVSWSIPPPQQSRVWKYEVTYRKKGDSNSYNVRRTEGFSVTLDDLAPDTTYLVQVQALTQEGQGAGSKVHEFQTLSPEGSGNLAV

This experiment has as its target T1, Human EphA2 (Ecto) (Human, UniProt P29317 24-537).
T1 construct: extracellular domain
In words: FP competition; competitor Compound 18. The protocol: Peptides without a fluorescent tag were tested in competition with a peptide with a fluorescent tag and a known Kd (Table 2). Peptides were diluted to an appropriate concentration in assay buffer as described in the direct binding assay with a maximum of 5% DMSO, then serially diluted 1 in 2. Five μL of diluted peptide was added to the plate followed by 10 μL of human or mouse EphA2 (Table 1) at a fixed concentration which was dependent on the fluorescent peptide used (Table 2), then 10 μL fluorescent peptide added. Measurements were conducted as for the direct binding assay, however the gain was determined prior to the first measurement.
Consider Ac-[Sar][Sar]A[dD][dD]TCPWGPFWCPVNRPGC (linker 7-14-21 via TBMB) [Compound 159], for which the inhibition constant (Ki) was 2.85 nM.

For the molecule Ac-[Sar][Sar]A[dD][Cba]TCPWGPFWCPVNRPGC (linker 7-14-21 via TBMB) [Compound 160], the inhibitory constant (Ki) came to 2.6 nM.

For the molecule Ac-[Sar][Sar]A[dD]VTCPWGP[hArg]WCPVNRPGC (linker 7-14-21 via TBMB) [Compound 171], the Ki came to 4.88 nM.

Consider AHDVPCP[1Nal]G[Aib]FWCP[Tle]NR[Aib]GC (linker 6-13-20 via TBMB) [Compound 192], for which the inhibition constant Ki is 1.75 nM.

Regarding AHDVPCPWGPF[1Nal]CPVNRPGC (linker 6-13-20 via TBMB) [Compound 189], the inhibition constant Ki stood at 1.3 nM.

Take ADVHCPWGPFWCPV[dA]RPGCA (linker 5-12-19 via TBMB) [Compound 155]: the Ki was 2 nM.

With [dD]VTCPWGPFWCPVNRPGC (linker 4-11-18 via TBMB) [Compound 185], the inhibition constant (Ki) came to 2.17 nM.

Turning to Ac-[Sar][Sar]A[dH]DVPCPWGPFWCPVNRPGC (linker 8-15-22 via TBMB) [Compound 196], the Ki worked out at 0.95 nM.

Turning to Ac-[Sar][Sar]A[dD]DVTCPWGPFWCPVNRPGC (linker 8-15-22 via TBMB) [Compound 281], the Ki amounted to 5.78 nM.

For Ac-[Sar][Sar]A[dD][Gly(cPr)]TCPWGPFWCPVNRPGC (linker 7-14-21 via TBMB) [Compound 162], the inhibition constant Ki is 2.55 nM.

As for Ac-[Sar][Sar]A[dD]VTCPWGPFWCPVN[hArg]P[dD]C (linker 7-14-21 via TBMB) [Compound 176], the Ki is 4.89 nM.

In the case of Ac-[Sar][Sar][dA]HDVPCPWGPFWCPVNRPGC (linker 8-15-22 via TBMB) [Compound 194], the inhibitory constant (Ki) turned out to be 1.2 nM.

For the molecule AHDVPCP[1Nal]GPFWCP[Tle]NRPGC (linker 6-13-20 via TBMB) [Compound 190], the Ki worked out at 0.7 nM.

Turning to [Sar][Sar]ACP[1Nal]GPFWCP[Tle]N[hArg]PGC (linker 4-11-18 via TBMB) [Compound 130], the Ki was determined as 0.29 nM.

Take Ac-[Sar][Sar]A[dD]VTCPWGPFWCPVNR[Aib][dD]C (linker 7-14-21 via TBMB) [Compound 177]: the inhibitory constant (Ki) was 4.43 nM.

On to ADVHCPWGPFWCPVN[dA]PGCA (linker 5-12-19 via TBMB) [Compound 156], for which the Ki is 14.9 nM.

With [Sar][Sar]ACP[1Nal]GPFWCP[Tle]N[hArg][Aib]GC (linker 4-11-18 via TBMB) [Compound 138], the inhibition constant (Ki) amounted to 5.1 nM.

For the molecule ADVHCPWAPFWCPVNRPGCA (linker 5-12-19 via TBMB) [Compound 151], the inhibition constant (Ki) worked out at 394 nM.

On to ADVHCPWGAFWCPVNRPGCA (linker 5-12-19 via TBMB) [Compound 152], for which the Ki stood at 1.8 nM.

Consider [Sar][Sar]A[dH]DVPCPWGPFWCPVNRPGC (linker 8-15-22 via TBMB) [Compound 197], for which the Ki was 1.2 nM.

For the molecule Ac-[Sar][Sar]A[dD]VTCP[1Nal]G[Aib]F[1Nal]CPVNR[Aib]GC (linker 7-14-21 via TBMB) [Compound 181], the inhibition constant (Ki) worked out at 1.37 nM.

In the case of Ac-[Sar][Sar]A[dD]VTCPWGPFWCPVNRP[dD]C (linker 7-14-21 via TBMB) [Compound 175], the inhibition constant Ki was found to be 1.78 nM.

For AHDVPCP[1Nal]G[Aib]FWCP[Tle]N[hArg]PGC (linker 6-13-20 via TBMB) [Compound 191], the Ki stood at 3.1 nM.

Turning to ADVHCPWG[Aib]FWCPVNRPGCA (linker 5-12-19 via TBMB) [Compound 153], the Ki is 0.51 nM.

Ac-[Sar][Sar]A[dD][Ala(cPr)]TCPWGPFWCPVNRPGC (linker 7-14-21 via TBMB) [Compound 161]: the Ki stood at 4.44 nM.

Consider Ac-[Sar][Sar]A[dD]VTCP[1Nal]GPFWCPVNRPGC (linker 7-14-21 via TBMB) [Compound 170], for which the inhibition constant Ki is 0.6 nM.

With ADVHCP[1Nal]GPFWCPVNRPGCA (linker 5-12-19 via TBMB) [Compound 150], the Ki came out at 0.12 nM.

Consider ADVHCP[Dip]GPFWCPVNRPGCA (linker 5-12-19 via TBMB) [Compound 149], for which the Ki was 52.8 nM.

In the case of Ac-[Sar][Sar]A[dD]VTCP[1Nal]G[Aib]FWCPVNR[Aib]GC (linker 7-14-21 via TBMB) [Compound 178], the Ki stood at 2.4 nM.

With Ac-[Sar][Sar]ADVHCPWGPFWCPVNRPGC (linker 7-14-21 via TBMB) [Compound 148], the Ki was found to be 1.2 nM.

For Ac-[Sar][Sar]ADVTCPWGPFWCPVNRPGC (linker 7-14-21 via TBMB) [Compound 157], the Ki came to 0.91 nM.

Take Ac-[Sar][Sar]A[dD]VTCPWG[Aib]FWCP[Tle]NR[Aib]GC (linker 7-14-21 via TBMB) [Compound 180]: the Ki was found to be 3.83 nM.

Consider Ac-[Sar][Sar]A[dD]VTCPWGPNWCPVNRPGC (linker 7-14-21 via TBMB) [Compound 172], for which the inhibition constant Ki was 3.96 nM.

As for Ac-[Sar][Sar]A[dD]VTCPWGPFWCPLNRPGC (linker 7-14-21 via TBMB) [Compound 174], the Ki is 9.1 nM.

Ac-[Sar][Sar]A[dD]VTCPWGPAWCPVNRPGC (linker 7-14-21 via TBMB) [Compound 173]: the Ki was found to be 6.69 nM.

For the molecule AHDVPCP[1Nal]GPFWCPVNRPGCA (linker 6-13-20 via TBMB) [Compound 187], the Ki stood at 0.32 nM.

For Ac-[Sar][Sar]AHDVPCPWGPFWCPVNRPGC (linker 8-15-22 via TBMB) [Compound 193], the Ki is 0.59 nM.

As to [Sar][Sar]AHEVPCPWGPFWCPVNRPGC (linker 8-15-22 via TBMB) [Compound 207], the inhibition constant Ki was 1.3 nM.

Turning to [Sar][Sar]AHDAPCPWGPFWCPVNRPGC (linker 8-15-22 via TBMB) [Compound 214], the inhibition constant Ki amounted to 22.5 nM.

[Sar][Sar]AHDVACPWGPFWCPVNRPGC (linker 8-15-22 via TBMB) [Compound 218]: the inhibition constant (Ki) worked out at 1.27 nM.

Take [Sar][Sar]AHAVPCPWGPFWCPVNRPGC (linker 8-15-22 via TBMB) [Compound 205]: the inhibitory constant (Ki) worked out at 1.8 nM.

As to Ac-[Sar][Sar]AADVPCPWGPFWCPVNRPGC (linker 8-15-22 via TBMB) [Compound 195], the inhibition constant Ki amounted to 1.01 nM.

With [Sar][Sar]ACPWGPFWCPVNRP[dA]C (linker 4-11-18 via TBMB) [Compound 112], the Ki was determined as 89 nM.

As for Ac-[Sar][Sar]AD[Tle]TCPWGPFWCPVNRPGC (linker 7-14-21 via TBMB) [Compound 164], the Ki was found to be 2.25 nM.

For AHDVPCP[1Nal]GPFWCPVNRPGC (linker 6-13-20 via TBMB) [Compound 188], the Ki was 1.45 nM.

In the case of Ac-[Sar][Sar]A[dD]VTCPWG[Aib]F[1Nal]CPVNR[Aib]GC (linker 7-14-21 via TBMB) [Compound 179], the inhibition constant Ki was found to be 2.94 nM.
